T1: recombinant human BCMA-his fusion protein (ACRO Biosystem, Cat. No. BCA-H522y) (human, UniProt Q02223 1-54)
T1 construct: extracellular domain; Bought protein; also called huBCMA-his; hu BCMA-his; not shown: His tag
T1 sequence (looked up): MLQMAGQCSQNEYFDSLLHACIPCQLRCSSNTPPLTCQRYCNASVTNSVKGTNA

T2: human BCMA on cells (NCI-H929, U266B1, HEK293 huBCMA) (human, UniProt Q02223 1-184)
T2 construct: whole, on cells; also called cell surface BCMA antigen
T2 sequence (looked up): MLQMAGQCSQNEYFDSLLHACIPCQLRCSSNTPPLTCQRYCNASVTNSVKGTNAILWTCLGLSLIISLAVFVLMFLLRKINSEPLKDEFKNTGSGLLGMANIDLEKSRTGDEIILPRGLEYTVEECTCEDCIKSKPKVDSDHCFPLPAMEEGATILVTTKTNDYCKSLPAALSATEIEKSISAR


Key:
[1] = biological target: T1, recombinant human BCMA-his fusion …; experiment: SPR (Biacore T200), anti-His capture on CM5, 1:1 fit
Protocol: In this example, the antigen-antibody binding kinetics and affinity were determined by the BIACORE method.
Procedures: The anti-histidine antibody (GE, His capture Kit, Cat. No. 28995056) was conjugated to the Sereis S Sensor Chip CMS to capture the test articles, thus acquiring the binding kinetic and affinity data of the antigen, as an analyte, to the test articles. The initial concentration for detecting the binding of the antigen and the test articles was 10 nM. […] The Start up flushing process (1×HBS-EP+buffer) was performed at least thrice before loading to equilibrate the system. The association and dissociation tendencies between the antigen and the test articles were detected. When the dissociation was completed, a regeneration reagent was loaded for regeneration before the detection of the next concentration was performed. After the detection was finished, the data were fitted by using a 1:1 Binding fitting mode in data analysis software (Biacore T200 Evaluation Software).

[2] = biological target: T1, recombinant human BCMA-his fusion …; experiment: competitive ELISA, coated huBCMA-his, competitor APRIL-biotin
Protocol: (§1) The 96-well microplate was treated with 100 μL of 0.5 μg/mL huBCMA-his in PBS and incubated overnight at 4° C. The plate was then washed thrice with PBS washing buffer containing 0.1% of Tween-20 and blocked with 300 μL of PBS containing 1% of BSA for 2 h. 100 μL of each BCMA antibody was added to the plate. […] The plate was incubated at 37° C. for 1 h, and unbound secondary antibody was washed with PBS washing buffer containing 0.1% of Tween-20. The TMB chromogenic solution was added at 100 μL/well. After a 5-min reaction at room temperature, 2 M H₂SO₄ was added at 100 μL/well to terminate the reaction. The microplate was placed on a microplate reader (Molecular Devices, SPECTRA Max plus 384) and the absorbance OD450 value was read at 450 nm wavelength.

[3] = biological target: T2, human BCMA on cells (NCI-H929, U266B1, …); experiment: flow cytometry on U266B1 cells
Protocol: Procedures: The cells were resuspended in PBS, and the cell density was adjusted to 2×10^5 cells/well. Human-mouse chimeric monoclonal antibodies were added to a 96-well plate at 50 μL/well and serially 3-fold diluted from 3000 nM to the 9th concentration. The plate was incubated for 1 h at 4° C. 150 μL of precooled PBS containing 1% of FBS was added into the 96-well plate after the co-incubation with the primary antibody was finished. The mixtures were centrifuged at 300×g for 5 min and the supernatants were discarded. The above procedures were repeated once. The fluorescent secondary antibody PE anti-human IgG Fc (Biolegend, 409304) was added at 80 μL/well. The plate was incubated at 4° C. for 30 min. 150 μL of precooled PBS containing 1% of FBS was added into the 96-well plate after the co-incubation with the secondary antibody was finished. The 96-well plate was centrifuged at 300×g for 5 min and the supernatants were discarded. The above procedures were repeated once. The cells were resuspended in 100 μL of PBS containing 1% of FBS and detected on a flow cytometry (BD Accuri™ C6).

[4] = biological target: T1, recombinant human BCMA-his fusion …; experiment: ELISA, coated antigen
Protocol: Procedures: huBCMA-his and cynoBCMA-his antigens were prepared into 0.5 μg/mL coating solutions with PBS (pH 7.4). The coating solutions were added to a microplate at 100 μL/well and incubated at 4° C. overnight. The residual coating solution was discarded before 3% BSA was added at 300 μL/well, and the plate was blocked for 3 h at room temperature. The microplate was washed once with PB ST at 300 The stock humanized monoclonal antibody solutions were serially 3-fold diluted to the 11th concentration. The dilutions were added to the microplate at 100 μL/well. After a 1-h incubation at room temperature, the microplate was washed thrice with PBST at 300 The HRP-conjugated 6*His, His-Tag antibody was 25,000-fold diluted with 1% BSA-PBST and added at 100 After another 1-h incubation at room temperature, the microplate was washed thrice with PB ST at 300 μL/well and dried. The TMB chromogenic solution was added at 100 μL. After a 5-min reaction at room temperature, 2 M H2504 was added at 100 μL/well to terminate the reaction. The microplate was placed on a microplate reader (Molecular Devices, SPECTRA Max plus 384) and the absorbance OD450 value was read at 450 nm wavelength.

[5] = biological target: T1, recombinant human BCMA-his fusion …; experiment: competitive ELISA: huBCMA-his coated, varied antibody added first, then APRIL-biotin, streptavidin-peroxidase, OD450; blocked ligand APRIL
Protocol: as §1

Row | Binder | Kd [1] [nM] | koff [1] [s⁻¹] | kon [1] [M⁻¹ s⁻¹] | IC50 [2] [µg/mL] | EC50 [3] [nM] | EC50 [4] [nM] | IC50 (read off the curve) [5] [µg/mL]
1 | human-mouse chimeric antibody c-mAb2 (antibody, human IgG1, V domains shown, not shown: human IgG1 heavy chain constant region, GenBank No. AK303185.1; human kappa light chain constant region, GenBank No. MG815648.1) VH: QVQLQQSDAELVKPGTSVKISCKVSGYTFTDHTIHWMKQRPEQGLEWIGYIYPRNGNTKYNEKFKGKATLTADKSSSTAYMHLNSLTSEDSAVYFCARYDYDGYFDVWGTGTTVTVSS VL: DVVMTQTPLSLPVSLGDQASISCRSSQSHVHSDGHTYLHWYLQKPGQSPELLIYKVSNRFSGVPDRFSGSGSGTDFTLKISRVEAEDLGVYFCSQNTHFPWTFGGGTKLEIK | 1.45 | 0.0679 | 4.68e+07 | 0.0108 | 14.7 | 0.0257 | 
2 | human-mouse chimeric antibody c-mAb3 (antibody, human IgG1, V domains shown, not shown: human IgG1 heavy chain constant region, GenBank No. AK303185.1; human kappa light chain constant region, GenBank No. MG815648.1) VH: EVQLQQSGPELVKPGASVKILCKASGYTITDYNMDWVKRSHGKSLEWIGNINPHNGGSIYNQKFKGKATLTVDKSSSTAFMELRSLTSEDTAVYYCARGDATLVLDYWGQGTSLTVSS VL: DIVLTQSPASLAVSLGQRATISCRASKSVSTSGLSYMHWYQQKPGQPPKVLIYLASNLESGVPARFSGSGSGTDFTLNIHPVEEEDAATYYCQHSRELPPTFGAGTKLELK | 0.38 | 0.00178 | 4.69e+06 | > 12 | 81.5 | 0.0155 | ~0.4

Source: patent publication US20240117061A1 (WUHAN YZY BIOPHARMA, published 2024)
